The source of these data is PMC8329863 (Acta Crystallographica. Section D, Structural Biology, 2021).

The stoichiometry N is the number of molecules, sites or subunits per partner or assembly. For orientation: Kd means the free concentration of one partner at which half of the binding sites on the other are occupied at equilibrium, for simple one-to-one binding. A higher Kd goes with weaker binding.

The target of one experiment is T1, VanRSc (Streptomyces coelicolor, UniProt Q8CJW1).
T1 construct: gene SCO3590
The following applies: BeF3- formed from BeSO4 and NaF; Mg2+ present; phosphomimetic bound to Asp51 in the receiver domain; crystals at pH 7, room temperature.

For experiment [1], the target named is full-length VanR from Streptomyces coelicolor, activated state (beryllium fluoride bound at Asp51) (Streptomyces coelicolor). The experiment in a line: crystal structure; activated VanRSc co-crystallized with beryllium fluoride, microbatch under oil, 2.5 M NaCl, 0.1 M Tris pH 7, 0.2 M MgCl2, room temperature; monomer in the asymmetric unit, dimer by crystal symmetry.

Experiment [2] has as its target T2, full-length VanR from Streptomyces coelicolor, inactive (unphosphorylated) state (Streptomyces coelicolor).
T2 chain: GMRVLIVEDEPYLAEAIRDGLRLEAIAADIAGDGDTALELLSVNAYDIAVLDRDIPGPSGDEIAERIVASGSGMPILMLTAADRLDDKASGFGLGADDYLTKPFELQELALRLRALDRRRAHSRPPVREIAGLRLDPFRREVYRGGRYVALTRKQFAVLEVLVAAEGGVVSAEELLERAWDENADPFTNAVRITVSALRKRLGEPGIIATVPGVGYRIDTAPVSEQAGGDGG
As to the kind of experiment: AUC; sedimentation equilibrium, 4°C, 18 000, 20 000 and 22 000 rev/min, without beryllium fluoride; global fit, monomer-dimer model (dimer to monomers). The following applies: both partners purified.

Experiment [3] deals with T2, full-length VanR from Streptomyces …. As to the kind of experiment: AUC; sedimentation velocity, 20°C, 50 mM Tris pH 7.5, 50 mM NaCl, 10 mM MgCl2, without beryllium fluoride; 36.5 µM monomer; monomer-dimer model (dimer to monomers). The note with it: both partners purified.

`[F][Be-]([F])[F]` [beryllium fluoride]: the “X-ray crystallography, 2.03 A co-crystal structure” value on VanRSc is “The Be atom is bound to one of the carboxylate O atoms of Asp51”.
In experiment [1], “full-length VanR from Streptomyces coelicolor, activated state (beryllium fluoride bound at Asp51) (natural protein)” had a stoichiometry N of 2.

B1: full-length VanR from Streptomyces coelicolor, inactive (unphosphorylated) state (natural protein)
chain: T2 chain
modifications: unphosphorylated at Asp51 (paper numbering; entity position 52), no beryllium fluoride; Mg2+ present (10 mM MgCl2 in AUC). Wild-type residues 1-231 plus the N-terminal Gly left after SUMO cleavage. …
As to B1, the Kd in experiment [2] was 37 µM; in experiment [3] it was over 1000 µM.
